Experiment [1] concerns the target HSP70-GFP (full-length HSP70 fused to GFP) (human) (UniProt P0DMV8). Nature of the experiment: cell-based or functional assay.
In experiment [2] the target is HSP70 (human HSP70; the antigen of the binning, humanization and variant binding assays) (human) (UniProt P0DMV8). Briefly: BLI, anti-human Fc capture, antigen 100 nM. In general terms: BLI is a label-free optical method that tracks binding on a fibre tip over time.

These results are taken from US20250084155A1.

HSP70 (human HSP70; the antigen of the binning, humanization and variant binding assays) (human), sequence (P0DMV8 whole entry, change not shown): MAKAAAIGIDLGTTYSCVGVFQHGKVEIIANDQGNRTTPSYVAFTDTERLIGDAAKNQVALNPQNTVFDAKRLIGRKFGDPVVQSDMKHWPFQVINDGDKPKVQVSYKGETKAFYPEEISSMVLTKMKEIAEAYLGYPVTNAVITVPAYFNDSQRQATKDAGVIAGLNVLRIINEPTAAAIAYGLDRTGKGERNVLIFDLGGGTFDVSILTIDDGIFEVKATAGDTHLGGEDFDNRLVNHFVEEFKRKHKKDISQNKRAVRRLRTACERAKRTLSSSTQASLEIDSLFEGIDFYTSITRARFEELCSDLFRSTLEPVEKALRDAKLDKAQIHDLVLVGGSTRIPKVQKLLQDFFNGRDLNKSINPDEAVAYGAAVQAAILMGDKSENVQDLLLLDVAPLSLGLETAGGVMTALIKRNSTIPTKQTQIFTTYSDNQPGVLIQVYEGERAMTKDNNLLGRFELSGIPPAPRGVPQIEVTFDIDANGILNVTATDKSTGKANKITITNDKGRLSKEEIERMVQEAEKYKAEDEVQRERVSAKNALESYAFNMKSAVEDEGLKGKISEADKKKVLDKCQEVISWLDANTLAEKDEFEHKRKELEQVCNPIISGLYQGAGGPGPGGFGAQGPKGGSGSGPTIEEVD
HSP70-GFP (full-length HSP70 fused to GFP) (human), sequence (P0DMV8 whole entry, the tested form may be a part): as the sequence (P0DMV8 whole entry, change not shown) above

B1: murine 77A in a murine IgG2a format (antibody, V domains shown)
VH: QIQLVQSGPELKKPGETVKISCKASGYTFTNYGMNWVKQAPGKGLKWMGWINTYTGEPTYADDFKGRFAFSLETSATTAYLQINNLKNEDTATYFCARYDHAMDYWGQGTSVTVSS
VL: DIVMSQSPSSLAVSAGEKVTMSCKSSQSLLNSGTRKNYLAWYQQKPGQSPKLLIYWTSTRESGVPDRFTGSGSGTDFTLTINSVQAEDLAVYYCKQSYTLYTFGGGTKLEIK
In experiment [1], B1 had a % live cells GFP positive, DC3.2 cells of 78.3% and a % live cells GFP positive, MH-S cells of 66%.

B2: murine 77A in a murine IgG2b format (antibody, V domains shown)
VH: QIQLVQSGPELKKPGETVKISCKASGYTFTNYGMNWVKQAPGKGLKWMGWINTYTGEPTYADDFKGRFAFSLETSATTAYLQINNLKNEDTATYFCARYDHAMDYWGQGTSVTVSS
VL: DIVMSQSPSSLAVSAGEKVTMSCKSSQSLLNSGTRKNYLAWYQQKPGQSPKLLIYWTSTRESGVPDRFTGSGSGTDFTLTINSVQAEDLAVYYCKQSYTLYTFGGGTKLEIK
In experiment [1], B2 yielded a % GFP positivity, DC3.2 cells of 4.85% and a % GFP positivity, MH-S cells of 16%.

B3: h77A-1.32 (antibody, V domains shown)
VH: QIQLVQSGAEVKKPGASVKVSCKASGYTFTNYGMNWVRQAPGQGLEWMGWINTYTGEPRYADDFKGRFTFTTDTSTSTAYMELRSLRSDDTAVYFCARYDHDMDYWGQGTLVTVSS
VL: EIVLTQSPDSLAVSLGERATINCKSSQSLLNSGTRKNYLAWYQQKAGQSPKLLIYWTSTRESGVPDRFSGSGSGTDFTLTIDSLQAEDVAVYYCKQSYTLYTFGGGTKVEIK
With B3, in experiment [2], the % Diss is -80.5%, the X = 610 came to 0.0256 nM and the X = 1495 is 0.0462 nM.
